As a reminder, the EC50 is the concentration at which the effect is half-maximal. As a reminder, the koff is the first-order rate constant of dissociation. Lower therefore signals a long-lived complex.

In experiment [1] the target is T1, HisCD74v1 (recombinant extracellular domain of human CD74 variant 1, N-terminal hexameric His tag) (human, UniProt P04233 73-296).
T1 construct: also called recombinant CD74v1; CD74v1 extracellular domain
T1 sequence: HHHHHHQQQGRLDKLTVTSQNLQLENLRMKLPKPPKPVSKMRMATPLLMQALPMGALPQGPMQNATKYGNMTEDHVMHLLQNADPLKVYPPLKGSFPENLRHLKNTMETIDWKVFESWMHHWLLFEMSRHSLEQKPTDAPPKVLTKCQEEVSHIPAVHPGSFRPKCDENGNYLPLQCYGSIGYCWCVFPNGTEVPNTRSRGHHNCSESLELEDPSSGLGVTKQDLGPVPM
In words: ELISA, coated recombinant CD74v1 extracellular domain. The procedure:
(§1) ELISA plates (Greiner BioOne) were coated 0/N at 4° C. with 2 μg/mL, 100 μL per well, recombinant CD74v1 or CD74v2 in PBS (B. Braun Melsungen AG). Sequences and production of the isoforms were described supra. ELISA wells were washed three times with PBS containing 0.05% Tween-20 (PBST), emptied, and blocked with 1% (w/v) BSA fraction V (Roche) in PBS at RT for 1 h while shaking (300 rpm), and emptied. Subsequently, 100 μL anti-CD74 HuMab antibodies were added in serial dilutions in 0.2% (w/v) BSA fraction V in PBST (assay buffer) and incubated while shaking at RT for 90 min. ELISA plates were washed three times with PBST, emptied, and bound HuMab antibodies were detected using HRP-conjugated goat-anti human IgG (100 μL; 1:5,000; Peroxidase Affinipure Goat anti-human IgG, F(ab′)2 Fragment Specific [min X Bov,Hrs,Ms Sr Prot]; Jackson Immunoresearch) in assay buffer and incubated while shaking at RT for 90 min. Plates were washed three times with PBST, emptied, and incubated with 100 μL ABTS solution (50 ml ABTS buffer [Roche] and one ABTS tablet [50 mg; Roche]). After incubation in the dark at RT for 30 min, the reaction was stopped by addition of 100 μL per well oxalic acid (2% [w/v]). Plates were measured at OD 405 nm in an ELISA reader (Biotek Instruments, EL808 Absorbance Microplate Reader).
(§2) Isotype control Ab IgG1-b12 was used as a negative control. Binding curves were analyzed using non-linear regression (sigmoidal dose-response with variable slope) using GraphPad Prism 5 software (GraphPad Software, San Diego, Calif., USA).
(In general: In an ELISA, binding on a coated surface is turned into a signal by an enzyme label.)

Experiment [2] addresses human CD74, naturally expressed on cells (Raji, Daudi, M4A4, NCI-H747 cells; human tonsil tissue) (human) (UniProt P04233). Briefly: cell-based or functional assay.
Experiment [3] has as its target T1, HisCD74v1 (recombinant extracellular …). Briefly: ELISA, coated recombinant CD74v1 extracellular domain (CD74ECDHis); mean of four experiments. The method, then:
ELISA plates (Greiner BioOne) were coated with 2 μg/mL, 100 μL per well, recombinant CD74ECDHis in PBS (B. Braun Melsungen AG) at 4° C., 0/N. ELISA plates were emptied and blocked with 200 μL/well PBS containing 0.05% Tween-20 (PBST) while shaking (300 rpm), at RT for 1 hour, washed three times with 300 μL PBST and emptied. Subsequently, 100 μL anti-CD74 ADCs or unconjugated CD74-specific HuMab antibodies were added in serial dilutions in PBST and incubated while shaking at RT for 2 hours. ELISA plates were washed with PBST and emptied. Bound anti-CD74 ADCs and unconjugated HuMab antibodies were detected by addition of HRP-conjugated mouse-anti human IgG1 (100 μL; 0.015 μg/mL; Sanquin; # M1328) in PBST and incubation while shaking, at RT for 2 hours. Plates were washed with PBST, emptied and incubated with 100 μL ABTS solution (50 ml ABTS buffer [Roche] and one ABTS tablet [50 mg; Roche]). After incubation in the dark while shaking, at RT for 30 min, the reaction was stopped by incubation with 100 μL per well oxalic acid (2% [w/v]; Riedel de Haen) in the dark while shaking, for 10 min. Plates were measured at OD 405 nm in an ELISA reader (Biotek Instruments, EL808 Absorbance Microplate Reader).
IgG1-b12, an antibody binding to a non-related antigen, was used as a negative control (both unconjugated as well as in ADC format). Binding curves were analyzed by non-linear regression (sigmoidal dose-response with variable slope) using GraphPad Prism 5 software (GraphPad Software, San Diego, Calif., USA).

In experiment [4] the target is T2, HisCD74v2 (recombinant extracellular domain of human CD74 variant 2, N-terminal hexameric His tag) (human, UniProt P04233 73-296).
T2 construct: also called recombinant CD74v2; CD74v2 extracellular domain
T2 sequence: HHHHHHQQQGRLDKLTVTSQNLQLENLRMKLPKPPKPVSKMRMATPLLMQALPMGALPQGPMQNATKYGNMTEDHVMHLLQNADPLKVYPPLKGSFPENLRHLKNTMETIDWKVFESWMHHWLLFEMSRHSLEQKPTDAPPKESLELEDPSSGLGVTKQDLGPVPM
In words: ELISA, coated recombinant CD74v2 extracellular domain. The procedure:
as §1, §2

The target of experiment [5] is human CD74, naturally expressed on cells (Raji, Daudi, M4A4, NCI-H747 cells; human tonsil tissue) (human) (UniProt P04233). Briefly: FACS on Raji cells.
Experiment [6] shares this target. In words: FACS on Daudi cells at 0° C., Alexa-488-labeled antibody displaced by excess unlabeled antibody.
For experiment [7] the target is unchanged. In words: FACS on Daudi cells; mean of three experiments.
Experiment [8] has the same target. In words: FACS on Daudi cells, 10 µg/mL; mean of three experiments.

B1: HuMab-CD74-006 (antibody, human IgG1, V domains shown)
VH: QVQLVESGGGVVQPGRSLRLSCAASGFTFSSYAMHWVRQAPGKGLEWVAVISYDGSIKYYADSVKGRFTISRDNSKNTLYLQMNSLRVEDTAVFYCARGREITSQNIVILLDYWGQGTLVTVTS
VL: DIQMTQSPSSLSASVGDRVTITCRASQGISSWLAWYQQKPEKAPKSLIYAASSLQSGVPSRFSGSGSGTDFTLTISSLQPEDFATYYCQQYNSYPLTFGGGTKVEIK
notes: Human IgG1,kappa antibody produced transiently in HEK-293F cells; also called antibody 006
For the molecule B1, the 50% effective concentration (EC50) came to 0.321 µg/mL in experiment [1]; 0.02 µg/mL in experiment [3]; 0.21 µg/mL in experiment [4]; 0.196 µg/mL in experiment [5]; 0.04 µg/mL in experiment [7]. Also, in experiment [2], the % viability (minimal) of Raji cells, anti-kappa-ETA' assay stood at 1.5%. In addition, the EC50 of killing of Raji cells, anti-kappa-ETA' assay in experiment [2] was 57 µg/mL. The same molecule returned a dissociation rate constant (koff) in experiment [6] of 0.004 s⁻¹. Also, the time until half of the bound labeled antibody was replaced in experiment [6] came to 3 min. This molecule also came in with a Maximal binding (MFI at 10 µg/mL) in experiment [8] of 4600 MFI.

B2: HuMab-CD74-011 (antibody, human IgG1, V domains shown)
VH: QVQLVESGGGVVQPGRSLRLSCAASGFTFSSYGMHWVRQAPDKGLEWVAVIWYDGSNKYYADSVKGRFTISRDNSKNTLYLQMNSLRAEDTAVYYCARGGTLVRGAMYGTDVWGQGTTVTVSS
VL: DIQMTQSPSSLSASVGDRVTITCRASQGISSWLAWYQQKPEKAPKSLIYAASSLQSGVPSRFSGSGSGTDFTLTISSLQPEDFATYYCQQYNSYPLTFGGGTKVEIK
notes: Human IgG1,kappa antibody produced transiently in HEK-293F cells; also called antibody 011
B2: the concentration giving a half-maximal response (EC50) in experiment [1] is 0.344 µg/mL; in experiment [3], 0.02 µg/mL; in experiment [4] it was 0.245 µg/mL; in experiment [5] it was 0.151 µg/mL; in experiment [7] it was 0.05 µg/mL. This molecule yielded a koff in experiment [6] of 0.00117 s⁻¹. This molecule returned a time until half of the bound labeled antibody was replaced in experiment [6] of 10 min. For the same molecule, the Maximal binding (MFI at 10 µg/mL) in experiment [8] was 5780 MFI.

The values above are taken from US20170173151A1 (Genmab, published 2017).
